According to US20140179594A1, “STREPTOCOCCUS BACTERIOPHAGE LYSINS FOR TREATMENT OF GRAM POSITIVE BACTERIA IN COMPANION ANIMALS AND LIVESTOCK” (priority 2011, published 2014):

Columns and labels:
Format in all cases: cell-based
S. suis 5735 (ST2) = assay: ΔPlySs1 CFU analysis; conditions: 1 hr
Method: (§1) Given the above experiments, the following optimal buffering conditions were employed for all further in vitro experiments with ΔPlySs1: 20 mM phosphate buffer, pH=7.8, 2 mM EDTA. A range of lysin concentrations, from 6.5-130 μg/ml, were introduced to live S. suis cells in this buffer. Three strains were considered particularly relevant: 7711, the serotype 7 strain that encodes PlySs1; 5735, the serotype 2 reference strain; and 7997, a highly virulent serotype 9 strain. In terms of bacterial viability, only the highest PlySs1-concentration (130 μg/ml) led to a >90% decrease in CFUs for 7711, S735, and 7997 after 1 hr treatment (TABLE 2). The lysin was also tested against actively-dividing cells in broth culture (strain 7711) (FIG. 20).
(§2) For two ΔPlySs1 concentrations (130 and 13 μg/ml), CFU analysis was conducted on S. suis strains 5735, 7997, and 7711 after 1 hr treatment (optimal buffering conditions). In each experiment, the percentage-decrease in CFUs was determined for the treated sample versus the untreated. The range of the values observed (across 3 independent experiments) is reported here for each strain. The serotype of each strain is indicated in parentheses.

S. suis 7711 (ST7) = assay: ΔPlySs1 CFU analysis; conditions: 1 hr
Method: as §1, §2

S. suis 7997 (ST9) = assay: ΔPlySs1 CFU analysis; conditions: 1 hr
Method: as §1, §2

S. suis 6388 (ST1) = assay: ΔPlySs1 OD600 lysis, 1 hr
Method: as §1
ΔPlySs1 was further tested against a panel of 19 other S. suis strains of diverse serotypes, as well as other species of Gram-positive bacteria. The same lysin concentrations were used as above. For each dosage, the observed lysis values after 1 hr are listed in TABLE 3 and TABLE 4, and the information is summarized graphically in FIG. 21.

S. agalactiae type II = assay: ΔPlySs1 OD600 lysis, 1 hr
S. pyogenes A486 = assay: ΔPlySs1 OD600 lysis, 1 hr
S. pneumoniae R36 = assay: ΔPlySs1 OD600 lysis, 1 hr
S. dysgalactiae GGS = assay: ΔPlySs1 OD600 lysis, 1 hr
S. equi 700400 = assay: ΔPlySs1 OD600 lysis, 1 hr
S. pyogenes D471 = assay: ΔPlySs1 OD600 lysis, 1 hr
S. gordonii 10558 = assay: ΔPlySs1 OD600 lysis, 1 hr
S. sanguinis 10556 = assay: ΔPlySs1 OD600 lysis, 1 hr
E. faecium EFSK2 = assay: ΔPlySs1 OD600 lysis, 1 hr
S. aureus RN4220 = assay: ΔPlySs1 OD600 lysis, 1 hr
S. rattus BHT = assay: ΔPlySs1 OD600 lysis, 1 hr
M. luteus 4698 = assay: ΔPlySs1 OD600 lysis, 1 hr
S. mutans U159 = assay: ΔPlySs1 OD600 lysis, 1 hr
S. epidermidis HN1292 = assay: ΔPlySs1 OD600 lysis, 1 hr
S. agalactiae 090R = assay: ΔPlySs1 OD600 lysis, 1 hr
S. simulans TNK3 = assay: ΔPlySs1 OD600 lysis, 1 hr

B1: ΔPlySs1: truncated PlySs1 lysin with N-terminal enzymatic and central binding domains, N-terminal 254 amino acids, SEQ ID NO:2 (protein, listed as Streptococcus suis)
chain: MTINLETSIRWMSDRVGKVSYSMDYRNGPNSYDCSSAVYYALMAGGAISAGWAVNTEYMHDWLIRNGYVLVAENKPFNAQRHDVCILGKRGYSSGAGGHVVIFVDNVNVIHCNYARNGISIDNYNQVHRGMYYYLYRPANQPSISNKSLDQLVKETLAGVHGNGDTRKASLGSQYEAVMAVINGKASASEKSDEELAREVLAGKHGAGEDRKRSLGPRYEPVQAKVNELLKAKEKPSETAKNEPQTVQFKEDGDL
B1 was tested, and the “percentage-decrease in CFUs, treated versus untreated (range of 3 experiments)” value (from here on “percentage-decrease in CFUs”) (S. suis 5735 (ST2); 13 μg/ml) was 80.4%-92.6%, the “percentage-decrease in CFUs” value (S. suis 5735 (ST2); 130 μg/ml) was 95.4%-99.5% and the “percentage-decrease in CFUs” value (S. suis 5735 (ST2); 130 μg/ml, listed as PlySs1) was greater than 90%. For the same molecule, the “percentage-decrease in CFUs” value (S. suis 7711 (ST7); 13 μg/ml) was 0%-35.6%, the “percentage-decrease in CFUs” value (S. suis 7711 (ST7); 130 μg/ml) was 95.3%-99.2% and the “percentage-decrease in CFUs” value (S. suis 7711 (ST7); 130 μg/ml, listed as PlySs1) was greater than 90%. The “percentage-decrease in CFUs” value (S. suis 7997 (ST9); 13 μg/ml) was 16.8%-30.3%, the “percentage-decrease in CFUs” value (S. suis 7997 (ST9); 130 μg/ml) was 89.9%-93.9% and the “percentage-decrease in CFUs” value (S. suis 7997 (ST9); 130 μg/ml, listed as PlySs1) was greater than 90%. For the same molecule, the “1-hour treated/untreated OD600-ratio” value (S. suis 6388 (ST1); 6.5 μg/ml) was 0.15, the “1-hour treated/untreated OD600-ratio” value (S. suis 6388 (ST1); 13 μg/ml) was 0.13 and the “1-hour treated/untreated OD600-ratio” value (S. suis 6388 (ST1); 30 μg/ml) was 0.06. The “1-hour treated/untreated OD600-ratio” value (S. suis 6388 (ST1); 65 μg/ml) was 0.03, the “1-hour treated/untreated OD600-ratio” value (S. suis 6388 (ST1); 130 μg/ml) was 0.02 and the “1-hour treated/untreated OD600-ratio” value (S. agalactiae type II; 6.5 μg/ml) was 0.61. For the same molecule, the “1-hour treated/untreated OD600-ratio” value (S. agalactiae type II; 13 μg/ml) was 0.21, the “1-hour treated/untreated OD600-ratio” value (S. agalactiae type II; 30 μg/ml) was 0.11 and the “1-hour treated/untreated OD600-ratio” value (S. agalactiae type II; 65 μg/ml) was 0.08. The “1-hour treated/untreated OD600-ratio” value (S. agalactiae type II; 130 μg/ml) was 0.04, the “1-hour treated/untreated OD600-ratio” value (S. pyogenes A486; 6.5 μg/ml) was 0.12 and the “1-hour treated/untreated OD600-ratio” value (S. pyogenes A486; 13 μg/ml) was 0.13. The “1-hour treated/untreated OD600-ratio” value (S. pyogenes A486; 30 μg/ml) was 0.13, the “1-hour treated/untreated OD600-ratio” value (S. pyogenes A486; 65 μg/ml) was 0.11 and the “1-hour treated/untreated OD600-ratio” value (S. pyogenes A486; 130 μg/ml) was 0.10. The “1-hour treated/untreated OD600-ratio” value (S. pneumoniae R36; 6.5 μg/ml) was 0.25, the “1-hour treated/untreated OD600-ratio” value (S. pneumoniae R36; 13 μg/ml) was 0.22 and the “1-hour treated/untreated OD600-ratio” value (S. pneumoniae R36; 30 μg/ml) was 0.14. The “1-hour treated/untreated OD600-ratio” value (S. pneumoniae R36; 65 μg/ml) was 0.16, the “1-hour treated/untreated OD600-ratio” value (S. pneumoniae R36; 130 μg/ml) was 0.12 and the “1-hour treated/untreated OD600-ratio” value (S. dysgalactiae GGS; 6.5 μg/ml) was 0.30. For the same molecule, the “1-hour treated/untreated OD600-ratio” value (S. dysgalactiae GGS; 13 μg/ml) was 0.27, the “1-hour treated/untreated OD600-ratio” value (S. dysgalactiae GGS; 30 μg/ml) was 0.15 and the “1-hour treated/untreated OD600-ratio” value (S. dysgalactiae GGS; 65 μg/ml) was 0.11. The “1-hour treated/untreated OD600-ratio” value (S. dysgalactiae GGS; 130 μg/ml) was 0.14, the “1-hour treated/untreated OD600-ratio” value (S. equi 700400; 6.5 μg/ml) was 0.48 and the “1-hour treated/untreated OD600-ratio” value (S. equi 700400; 13 μg/ml) was 0.25. The “1-hour treated/untreated OD600-ratio” value (S. equi 700400; 30 μg/ml) was 0.15, the “1-hour treated/untreated OD600-ratio” value (S. equi 700400; 65 μg/ml) was 0.07 and the “1-hour treated/untreated OD600-ratio” value (S. equi 700400; 130 μg/ml) was 0.09. The “1-hour treated/untreated OD600-ratio” value (S. pyogenes D471; 6.5 μg/ml) was 0.39, the “1-hour treated/untreated OD600-ratio” value (S. pyogenes D471; 13 μg/ml) was 0.27 and the “1-hour treated/untreated OD600-ratio” value (S. pyogenes D471; 30 μg/ml) was 0.17. The “1-hour treated/untreated OD600-ratio” value (S. pyogenes D471; 65 μg/ml) was 0.13, the “1-hour treated/untreated OD600-ratio” value (S. pyogenes D471; 130 μg/ml) was 0.09 and the “1-hour treated/untreated OD600-ratio” value (S. gordonii 10558; 6.5 μg/ml) was 0.76. For the same molecule, the “1-hour treated/untreated OD600-ratio” value (S. gordonii 10558; 13 μg/ml) was 0.32, the “1-hour treated/untreated OD600-ratio” value (S. gordonii 10558; 30 μg/ml) was 0.19 and the “1-hour treated/untreated OD600-ratio” value (S. gordonii 10558; 65 μg/ml) was 0.09. For the same molecule, the “1-hour treated/untreated OD600-ratio” value (S. gordonii 10558; 130 μg/ml) was 0.06, the “1-hour treated/untreated OD600-ratio” value (S. sanguinis 10556; 6.5 μg/ml) was 0.48 and the “1-hour treated/untreated OD600-ratio” value (S. sanguinis 10556; 13 μg/ml) was 0.44. The “1-hour treated/untreated OD600-ratio” value (S. sanguinis 10556; 30 μg/ml) was 0.28, the “1-hour treated/untreated OD600-ratio” value (S. sanguinis 10556; 65 μg/ml) was 0.21 and the “1-hour treated/untreated OD600-ratio” value (S. sanguinis 10556; 130 μg/ml) was 0.11. The “1-hour treated/untreated OD600-ratio” value (E. faecium EFSK2; 6.5 μg/ml) was 0.85, the “1-hour treated/untreated OD600-ratio” value (E. faecium EFSK2; 13 μg/ml) was 0.67 and the “1-hour treated/untreated OD600-ratio” value (E. faecium EFSK2; 30 μg/ml) was 0.52. The “1-hour treated/untreated OD600-ratio” value (E. faecium EFSK2; 65 μg/ml) was 0.32, the “1-hour treated/untreated OD600-ratio” value (E. faecium EFSK2; 130 μg/ml) was 0.13 and the “1-hour treated/untreated OD600-ratio” value (S. aureus RN4220; 6.5 μg/ml) was 0.89. For the same molecule, the “1-hour treated/untreated OD600-ratio” value (S. aureus RN4220; 13 μg/ml) was 0.78, the “1-hour treated/untreated OD600-ratio” value (S. aureus RN4220; 30 μg/ml) was 0.55 and the “1-hour treated/untreated OD600-ratio” value (S. aureus RN4220; 65 μg/ml) was 0.31. For the same molecule, the “1-hour treated/untreated OD600-ratio” value (S. aureus RN4220; 130 μg/ml) was 0.10, the “1-hour treated/untreated OD600-ratio” value (S. rattus BHT; 6.5 μg/ml) was 0.82 and the “1-hour treated/untreated OD600-ratio” value (S. rattus BHT; 13 μg/ml) was 0.84. For the same molecule, the “1-hour treated/untreated OD600-ratio” value (S. rattus BHT; 30 μg/ml) was 0.82, the “1-hour treated/untreated OD600-ratio” value (S. rattus BHT; 65 μg/ml) was 0.83 and the “1-hour treated/untreated OD600-ratio” value (S. rattus BHT; 130 μg/ml) was 0.79. The “1-hour treated/untreated OD600-ratio” value (M. luteus 4698; 6.5 μg/ml) was 0.84, the “1-hour treated/untreated OD600-ratio” value (M. luteus 4698; 13 μg/ml) was 0.90 and the “1-hour treated/untreated OD600-ratio” value (M. luteus 4698; 30 μg/ml) was 0.83. The “1-hour treated/untreated OD600-ratio” value (M. luteus 4698; 65 μg/ml) was 0.87, the “1-hour treated/untreated OD600-ratio” value (M. luteus 4698; 130 μg/ml) was 0.82 and the “1-hour treated/untreated OD600-ratio” value (S. mutans U159; 6.5 μg/ml) was 0.95. The “1-hour treated/untreated OD600-ratio” value (S. mutans U159; 13 μg/ml) was 0.99, the “1-hour treated/untreated OD600-ratio” value (S. mutans U159; 30 μg/ml) was 0.94 and the “1-hour treated/untreated OD600-ratio” value (S. mutans U159; 65 μg/ml) was 0.76. The “1-hour treated/untreated OD600-ratio” value (S. mutans U159; 130 μg/ml) was 0.85, the “1-hour treated/untreated OD600-ratio” value (S. epidermidis HN1292; 6.5 μg/ml) was 1.04 and the “1-hour treated/untreated OD600-ratio” value (S. epidermidis HN1292; 13 μg/ml) was 1.00. For the same molecule, the “1-hour treated/untreated OD600-ratio” value (S. epidermidis HN1292; 30 μg/ml) was 0.96, the “1-hour treated/untreated OD600-ratio” value (S. epidermidis HN1292; 65 μg/ml) was 0.94 and the “1-hour treated/untreated OD600-ratio” value (S. epidermidis HN1292; 130 μg/ml) was 0.87. For the same molecule, the “1-hour treated/untreated OD600-ratio” value (S. agalactiae 090R; 6.5 μg/ml) was 0.97, the “1-hour treated/untreated OD600-ratio” value (S. agalactiae 090R; 13 μg/ml) was 0.99 and the “1-hour treated/untreated OD600-ratio” value (S. agalactiae 090R; 30 μg/ml) was 0.97. For the same molecule, the “1-hour treated/untreated OD600-ratio” value (S. agalactiae 090R; 65 μg/ml) was 0.98, the “1-hour treated/untreated OD600-ratio” value (S. agalactiae 090R; 130 μg/ml) was 0.93 and the “1-hour treated/untreated OD600-ratio” value (S. simulans TNK3; 6.5 μg/ml) was 0.96. The “1-hour treated/untreated OD600-ratio” value (S. simulans TNK3; 13 μg/ml) was 1.00, the “1-hour treated/untreated OD600-ratio” value (S. simulans TNK3; 30 μg/ml) was 1.00 and the “1-hour treated/untreated OD600-ratio” value (S. simulans TNK3; 65 μg/ml) was 1.00. The “1-hour treated/untreated OD600-ratio” value (S. simulans TNK3; 130 μg/ml) was 0.96.
